The values below come from article PMC2148140.

The target in this test is human Erd2p (KDEL receptor) (human) (UniProt P24390). The test is described as follows: radioligand binding.
Sequence of UniProt P24390 (P24390 whole entry): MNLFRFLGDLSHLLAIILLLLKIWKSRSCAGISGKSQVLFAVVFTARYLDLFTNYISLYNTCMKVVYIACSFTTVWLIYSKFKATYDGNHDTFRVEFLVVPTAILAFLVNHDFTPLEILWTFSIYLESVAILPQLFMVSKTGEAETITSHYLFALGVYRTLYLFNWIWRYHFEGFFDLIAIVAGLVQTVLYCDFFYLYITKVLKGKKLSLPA

“cholera toxin A subunit (wild-type CTX-A), 125I-labelled (natural protein)” registered a binding at pH 6 as percent of the binding at pH 5 of 60%.
